US20160237132A1 (ALKERMES, published 2016)
Values belong to the binder of their own block, whether it stands above or below them.

Molecular target: IL-6 (UniProt P05231 30-212, limits assumed)
Test: cell-based or functional assay

Sequence of IL-6 (P05231 30-212 limits assumed): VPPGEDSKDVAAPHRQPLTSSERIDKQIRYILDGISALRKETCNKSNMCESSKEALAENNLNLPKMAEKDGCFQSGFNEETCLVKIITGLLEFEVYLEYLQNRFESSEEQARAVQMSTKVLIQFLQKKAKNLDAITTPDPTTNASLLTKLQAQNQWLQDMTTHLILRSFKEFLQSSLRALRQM

IC50, inhibition of IL-6-dependent differentiation of M1 cells (percent CD32 positive cells): 0.0026 µM
fold potency against RDB1542, inhibition of IL-6-dependent differentiation of M1 cells: > 400 fold
B1: RDB1562 (Fc fusion)
chain: QNQWLQDMTTHLILRSFKEFLQSSLRALRQMSGGSGGGSSERIDKQIRYILDGISALRKETCNKSNMCESSKEALAENNLNLPKMAEKDGCFQSGFNEETCLVKIITGLLEFEVYLEYLQNRFESSEEQARAVQMSTKVLIQFLQKKAKNLDAITTPDPTTNASLLTKLQASELLDPCGYISPESPVVQLHSNFTAVCVLKEKCMDYFHVNANYIVWKTNHFTIPKEQYTIINRTASSVTFTDIASLNIQLTCNILTFGQLEQNVYGITIISGGGGGSASSESSASSDGPHPVITESRASSESSASSDGPHPVITESRSERKCCVECPPCPAPPVAGPSVFLFPPKPKDTLMISRTPEVTCVVVDVSHEDPEVQFNWYVDGVEVHNAKTKPREEQFNSTFRVVSVLTVVHQDWLNGKEYKCKVSNKGLPAPIEKTISKTKGQPREPQVYTLPPSREEMTKNQVSLTCLVKGFYPSDISVEWESNGQPENNYKTTPPMLDSDGSFFLYSKLTVDKSRWQQGNVFSCSVMHEALHNHYTQKSLSLSPGK

IC50, inhibition of IL-6-dependent differentiation of M1 cells (percent CD32 positive cells): > 1000 µM
B2: RDB1542 (Fc fusion)
chain: QNQWLQDMTTHLILRSFKEFLQSSLRALRQMSGGSGGGSSERIDKQIRYILDGISALRKETCNKSNMCESSKEALAENNLNLPKMAEKDGCFQSGFNEETCLVKIITGLLEFEVYLEYLQNRFESSEEQARAVQMSTKVLIQFLQKKAKNLDAITTPDPTTNASLLTKLQASELLDPCGYISPESPVVQLHSNFTAVCVLKEKCMDYFHVNANYIVWKTNHFTIPKEQYTIINRTASSVTFTDIASLNIQLTCNILTFGQLEQNVYGITIISGGSERKCCVECPPCPAPPVAGPSVFLFPPKPKDTLMISRTPEVTCVVVDVSHEDPEVQFNWYVDGVEVHNAKTKPREEQFNSTFRVVSVLTVVHQDWLNGKEYKCKVSNKGLPAPIEKTISKTKGQPREPQVYTLPPSREEMTKNQVSLTCLVKGFYPSDISVEWESNGQPENNYKTTPPMLDSDGSFFLYSKLTVDKSRWQQGNVFSCSVMHEALHNHYTQKSLSLSPGK
